Source: US20020127541A1 (GOVERNING COUNCIL OF THE UNIVERSITY OF TORONTO, published 2002)

T1: endogenous calnexin (UniProt P27824 21-592)
T1 construct: Endogenous endoplasmic reticulum protein used as a control
T1 sequence (looked up): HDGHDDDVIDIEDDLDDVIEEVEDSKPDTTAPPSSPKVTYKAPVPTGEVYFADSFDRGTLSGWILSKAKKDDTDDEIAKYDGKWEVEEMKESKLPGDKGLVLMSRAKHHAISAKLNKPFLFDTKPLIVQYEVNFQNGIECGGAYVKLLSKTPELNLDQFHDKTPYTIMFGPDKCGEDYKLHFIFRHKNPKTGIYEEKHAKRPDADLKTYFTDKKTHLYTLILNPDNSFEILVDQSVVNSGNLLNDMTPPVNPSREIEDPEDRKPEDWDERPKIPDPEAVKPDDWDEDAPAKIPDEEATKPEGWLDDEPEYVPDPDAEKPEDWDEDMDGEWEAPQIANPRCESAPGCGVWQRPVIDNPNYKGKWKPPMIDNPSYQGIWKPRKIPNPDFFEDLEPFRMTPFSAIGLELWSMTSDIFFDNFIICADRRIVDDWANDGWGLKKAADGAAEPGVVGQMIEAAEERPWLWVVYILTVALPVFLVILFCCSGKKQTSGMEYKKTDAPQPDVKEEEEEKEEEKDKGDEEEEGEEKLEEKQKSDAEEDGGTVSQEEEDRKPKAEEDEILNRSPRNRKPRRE

B1: endogenous α-catenin (other)
chain: TAVHAGNINFKWDPKSLEIRTLAVERLLEPLVTQVTTLVNTNSKGPSNKKRGRSKKAHVLAASVEQATENFLEKGDKIAKESQFLKEELVAAVEDVRKQGDLMKAAAGEFADDPCSSVKRGNMVRAARALLSAVTRLLILADMADVYKLLVQLKVVEDGILKLRNAGNEQDLGIQYKALKPEVDKLNIMAAKRQQELKDVGHRDQMAAARGILQKNVPILYTASQACLQHPDVAAYKANRDLIYKQLQQAVTGISNAAQATASDDASQHQGGGGGELAYALNNFDKQIIVDPLSFSEERFRPSLEERLESIISGAALMADSSCTRDDRRERIVAECNAVRQALQDLLSEYMGNAGRKERSDALNSAIDKMTKKTRDLRRQLRKAVMDHVSDSFLETNVPLLVLIEAAKNGNEKEVKEYAQVFREHANKLIEVANLACSISNNEEGVKLVRMSASQLEALCPQVINAALALAAKPQSKLAQENMDLFKEQWEKQVRVLTDAVDDITSIDDFLAVSENHILEDVNKCVIALQEKDVDGLDRTAGAIRGRAARVIHVVTSEMDNYEPGVYTEKVLEATKLLSNTVMPRFTEQVEAAVEALSSDPAQPMDENEFIDASRLVYDGIRDIRKAVLMIRTPEELDDSDFETEDFDVRSRTSVQTEDDQLIAGQSARAIMAQLPQEQKAKIAEQVASFQEEKSKLDAEVSKWDDSGNDIIVLAKQMCMIMMEMTDFTRGKGPLKNTSDVISAAKKIAEAGSRMDKLGRTIADHCPDSACKQDLLAYLQRIALYCHQLNICSKVKAEVQNLGGELVVSGVDSAMSLIQAAKNLMNAVVQTVKASYVASTKYQKSQGMASLNLPAVSWKMKAPEKKPLVKREKQDETQTKIKRASQKKHVNPVQALSEFKAMDSI
notes: Endogenous protein of HEK293 cell lysates
B2: Myc-tagged hNPRAP528-1084 (other, human)
chain: ALKMPIIQDALAVLTNAVIIPHSGWENSPLQDDRKIQLHSSQVLRNATGCLRNVSSAGEEARRRMRECDGLTDALLYVIQSALGSSEIDSKTVENCVCILRNLSYRLAAETSQGQHMGTDELDGLLCGEANGKDAESSGCWGKKKKKKKSQDQWDGVGPLPDCAEPPKGIQMLWHPSIVKPYLTLLSECSNPDTLEGAAGALQNLAAGSWKWSVYIRAAVRKEKGLPILVELLRIDNDRVVCAVATALRNMALDVRNKELIGKYAMRDLVHRLPGGNNSNNTASKAMSDDTVTAVCCTLHEVITKNMENAKALRDAGGIEKLVGISKSKGDKHSPKVVKAASQVLNSMWQYRDLRSLYKKDGWSQYHFVASSSTIERDRQRPYSSSRTPSISPVRVSPNNRSASAPASPREMISLKERKTDYECTGSNATYHGGKGEHTSRKDAMTAQNTGISTLYRNSYGAPAEDIKHNQVSAQPVPQEPSRKDYETYQPFQNSTRNYDESFFEDQVHHRPPASEYTMHLGLKSTGNYVDFYSAARPYSELNYETSHYPASPDSWV
notes: Transiently expressed in HEK293 cells; also called myc-hNPRAP

Legend:
[1] = target: wild type PS1 (wtPS1) holoprotein (human, UniProt P49768 1-467); test: co-immunoprecipitation with anti-PS1 loop or N-terminus antibodies, Western blot
Experimental: Co-immunoprecipitation and glycerol velocity gradient fractionation were performed as previously described in Yu et al., 1998, J.Biol.Chem. 273:16470-16475. Immunoprecipitations were performed on cell lysates 48 hours after transient transfections. Total proteins (2 mg/ml) were extracted from cultured cells or brain tissue using a lysis buffer (0.2% NP-40, 0.5% Triton X-100, 50 mM Tris-HCl [pH7.6], 150 mM NaCl, 2 mM EDTA, 2 mM PMSF, […] each of aprotinin, leupeptin, pepstatin). […] New York, Cold Spring Harbor Laboratory Press. Protein A Sepharose was subsequently added to the antibody-antigen complex and incubated for 2 hours at 4° C. The beads were washed four times with a washing buffer (0.2% NP-40, 50 mM Tris-HCl[pH7.6], 150 mM NaCl, 2 mM EDTA). IP products were resolved by SDS-PAGE and investigated for the co-immunoprecipitated partners with the corresponding antibody and detection with ECL (Amersham). […]
Western blots of anti-PS 1 immunoprecipitates from PS1 transfected HEK293 cells were examined for the presence of other arm proteins expressed endogenously in HEK293 cells. Endogenous β-catenin, but not endogenous α-catenin, γ-catenin, or calnexin were detected in Western blots of immunoprecipitation products from HEK293 cells stably transfected with PS1, using either antibodies to PS1 cytoplasmic loop or to the PS1 N-terminus.

endogenous calnexin = target: T1, endogenous calnexin; test: co-immunoprecipitation

binding result [1] | binding result (endogenous calnexin) | Binder
no binding | – | B1
– | no binding | B2
